B1: PRKX (parent)
chain: KLLVVDRTRRLGNMKNGANDVKHH

Variants of: B1
Assay: protein stability index of a GFP-peptide fusion (GPS, HEK-293T) (PSI 1-6); higher = more stable
Conditions: c terminus: a fixed tail appended
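Note: lentivirally expressed fusions sorted by FACS into six bins by GFP to DsRed ratio, PSI derived from sequencing read proportions per bin multiplied by bin number.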

Row | Variant | protein stability index
1 | KLLVVDRTRELGNMKNGANDVKHH | 4.05
2 | KLLVVDRTRCLGNMKNGANDVKHH | 2.61
3 | KLLVVDRTRYLGNMKNGANDVKHH | 2.72
4 | KLLVVMRTRRLGNMKNGANDVKHH | 1.97
5 | KLLVVTRTRRLGNMKNGANDVKHH | 2.52
6 | KLLVVRRTRRLGNMKNGANDVKHH | 2.14
7 | KLLVVGRTRRLGNMKNGANDVKHH | 2.29
8 | KLLVVKRTRRLGNMKNGANDVKHH | 2.55
9 | KLLVVNRTRRLGNMKNGANDVKHH | 2.95
10 | TLLVVDRTRRLGNMKNGANDVKHH | 3.45
11 | YLLVVDRTRRLGNMKNGANDVKHH | 2.29
12 | ELLVVDRTRRLGNMKNGANDVKHH | 2.94
13 | KLLVVDRTRRLGNMKIGANDVKHH | 2.74
14 | KLLVVDRTRRLGNMKTGANDVKHH | 3.25
15 | KLLVVDRTRRLGNDKNGANDVKHH | 4.09
16 | KLLVVDRTRRLGNRKNGANDVKHH | 2.77
17 | KLLVVDRTRRLGNYKNGANDVKHH | 3.03
18 | KLLVVDRTRRLGNEKNGANDVKHH | 3.8
19 | KLLVVDRTRRLGNLKNGANDVKHH | 2.89
20 | KLLVVDRTRRLGNMKNGANDVKHT | 3.25
21 | KLLVVDRTRRLGNMKNGANDVKHQ | 3.01
22 | KLLVVDRTRRLGNMKNGANDVKHG | 2.75
23 | KLLVVDRTRRLGNMKNGANDVKHK | 3
24 | KLLVVDRTRRLGNMKNGANDVKHR | 3.1

Row | Variant | protein stability index
25 | KLLVVDRTRRLGNMKNGANDVKHE | 3.96
26 | KLLVVDRTRRLGNMKNGANDVKHF | 2.36
27 | KLLVVDRTRRLGNMKNGANDQKHH | 3.36
28 | KLLVVDRTRRLGNMKNGANDMKHH | 3.06
29 | KLLVVDRTRRLGNMKNGANDDKHH | 3.54
30 | KLLVVDRTRRLGNMKNGANDTKHH | 3.39
31 | KLLVVDRTRRLGNMKNGANDFKHH | 3.22
32 | KLLVVDRTRRLGNMKNGANDSKHH | 3.2
33 | KLLVVDRTRRLGNMKNGANDPKHH | 3.37
34 | KLLVVDRTRRLGNMKNGANDIKHH | 2.55
35 | KLLVVDRTRRLGNMKNGANDVHHH | 3.06
36 | KLLVVDRTRRLGNMKNGANDVMHH | 2.51
37 | KLLVVDRTRRLGNMKNGANDVFHH | 2.04
38 | KLLVVDRTRRLGNMKNGANDVYHH | 2.5
39 | KLIVVDRTRRLGNMKNGANDVKHH | 3.31
40 | KLNVVDRTRRLGNMKNGANDVKHH | 3.62
41 | KLCVVDRTRRLGNMKNGANDVKHH | 3.74
42 | KLSVVDRTRRLGNMKNGANDVKHH | 4.29
43 | KLEVVDRTRRLGNMKNGANDVKHH | 4.33
44 | KLMVVDRTRRLGNMKNGANDVKHH | 3.66
45 | KLQVVDRTRRLGNMKNGANDVKHH | 3.68
46 | KLLVVDRTRRLGNMKNGAPDVKHH | 2.97
47 | KLLVVDRTRRLGNMKNGAYDVKHH | 2.08
48 | KLLVVDRTRRLGNMKNGAHDVKHH | 2.75

Row | Variant | protein stability index
49 | KLLVVDRTRRLGNMKNGTNDVKHH | 3.23
50 | KLLVVDRTRRLGNMKNGQNDVKHH | 2.95
51 | KLLVVDRTRRLGNMKNGNNDVKHH | 3.19
52 | KLLVVDRTRRLGNMKNGMNDVKHH | 2.16
53 | KLLVVDRTRRLGNMKNGCNDVKHH | 3.55
54 | KLLVVDRTRRLGNMKNGENDVKHH | 3.67
55 | KLLVVDRTRRLGNMKNGSNDVKHH | 3.27
56 | KLLVVDRTRRLGNMKNGGNDVKHH | 3.27
57 | KLLVVDRTRRLGNMKNGANDVKQH | 2.69
58 | KLLVVDRTRRLGNMKNGANDVKCH | 2.94
59 | KLLVVDRTRRLGNMKNGANDVKNH | 3.72
60 | KLLVVDRTRRLGNMKNGANDVKLH | 2.85
61 | KLLVVDRTRRYGNMKNGANDVKHH | 3.1
62 | KLLVVDRTRRCGNMKNGANDVKHH | 2.57
63 | KLLVVDRTRRVGNMKNGANDVKHH | 3.09
64 | KLLVVDRTRRWGNMKNGANDVKHH | 2.67
65 | KLLMVDRTRRLGNMKNGANDVKHH | 2.57
66 | KLLTVDRTRRLGNMKNGANDVKHH | 3.4
67 | KLLVVDRTRRLDNMKNGANDVKHH | 3.12
68 | KLLVVDRTRRLGGMKNGANDVKHH | 2.84
69 | KLLVVDRTRRLGHMKNGANDVKHH | 2.81
70 | KLLVVDRTRRLGDMKNGANDVKHH | 3.46
71 | KLLVVDRTRRLGYMKNGANDVKHH | 3
72 | KLLVVDRTRRLGTMKNGANDVKHH | 3.09

Row | Variant | protein stability index
73 | KLLVVDRYRRLGNMKNGANDVKHH | 2.67
74 | KLLVVDRHRRLGNMKNGANDVKHH | 2.97
75 | KLLVVDRSRRLGNMKNGANDVKHH | 2.67
76 | KLLVVDRDRRLGNMKNGANDVKHH | 3.46
77 | KLLVVDRTRRLGNMFNGANDVKHH | 2.85
78 | KLLVVDRTRRLGNMQNGANDVKHH | 3.5
79 | KLLVVDRTRRLGNMHNGANDVKHH | 3.27
80 | KLLVVDRTRRLGNMINGANDVKHH | 2.73
81 | KLLVVDRTRRLGNMKNGANRVKHH | 2.53
82 | KLLVVDRTRRLGNMKNGANNVKHH | 2.74
83 | KLLVVDRTRRLGNMKNGANPVKHH | 2.75
84 | KLLVVDRTRRLGNMKNGANLVKHH | 2.41
85 | KHLVVDRTRRLGNMKNGANDVKHH | 3.68
86 | KDLVVDRTRRLGNMKNGANDVKHH | 4.03
87 | KLLVYDRTRRLGNMKNGANDVKHH | 2.61
88 | KLLVDDRTRRLGNMKNGANDVKHH | 4.07
89 | KLLVLDRTRRLGNMKNGANDVKHH | 2.6
90 | KLLVVDRTTRLGNMKNGANDVKHH | 3.21
91 | KLLVVDRTMRLGNMKNGANDVKHH | 2.99
92 | KLLVVDRTFRLGNMKNGANDVKHH | 2.76
93 | KLLVVDRTRRLGNMKNEANDVKHH | 3.52
94 | KLLVVDRTRRLGNMKNLANDVKHH | 2.81
